Reference: patent publication US10697970B2, “S100A9 levels for predicting lenalidomide and erythropoietin responsiveness” (H. LEE MOFFITT CANCER CENTER AND RESEARCH INSTITUTE, INC., priority 2015, dated 2020)

Columns and labels:
MDS BM-MNC [1] = test: qPCR of pyroptosis-related genes in lower-risk MDS BM-MNC treated with CD33-IgG1; assay type: cell-based, human; conditions: lower-risk MDS BM-MNC (n=5), 24 hours, versus autologous BM plasma alone
Procedure: RNA was isolated from BM-MNC using the RNeasy Mini Kit (Qiagen). cDNA was produced using the iScript cDNA Synthesis Kit (Bio-Rad). Sequences for primers can be found in Table 1. GAPDH mRNA was used for transcript normalization. cDNA was amplified using the iQ SYBR Green Supermix and the CFX96 Real-Time PCR Detection System (Bio-Rad). PCR conditions were as follows: 10 minutes at 95° C., followed by 40 cycles of amplification (15 seconds at 95° C. and 1 minute at 60° C.). Relative gene expression was calculated using the […] method.

MDS BM-MNC [2] = test: Pyroptosis flow cytometry panel in MDS BM-MNC incubated with autologous BM plasma; assay type: cell-based, human
Procedure: For human samples, treated and untreated BM-MNC were incubated overnight in IMDM, supplemented with 10% autologous BM plasma. Subsequently, cells were harvested, washed twice in 1×PBS, and stained with LIVE/DEAD Violet fluorescent reactive dye according to the manufacturer's protocol (Life Technologies). Cells were resuspended in 1×PBS with 2% BSA, and incubated at room temperature for 15 minutes to block non-specific binding. After washing, cells were stained with 30×FAM-FLICA® Caspase-1 and Caspase-3/7 solution at a ratio of 1:30 for 2 hours at 37° C. Cells were washed and stained for cell surface receptors using CD38:PE-CF594, CD33:BV711, CD34:APC (BD Biosciences), and CD71:PE-Cyanine7 (eBioscience). All antibodies were diluted 1:20, and cells were stained for 30 minutes at 4° C. Cells were washed, resuspended in 1× binding buffer, and stained with Annexin-V:Cy5.5 at a dilution of 1:20 for 15 minutes at room temperature (BD Biosciences). 1× binding buffer was added to a final volume of 400 μL. Sample acquisitions were carried out using a BD LSR II flow cytometer and FACSDiva software (BD Biosciences). Calibration of the flow cytometer was carried out prior to each experiment using Rainbow Mid-Range Fluorescent Particles (BD Biosciences). To establish fluorescence compensation settings, ArC Amine Reactive Compensation Beads were used for LIVE/DEAD Violet staining (Life Technologies), and BD CompBead Plus Anti-Mouse Ig κ/Negative Control (BSA) Compensation Plus Particles were used for surface receptor conjugates (BD Biosciences). Data were analyzed using FlowJo 9.7.5 software (FlowJo, LLC, Ashland, Oreg.).

B1: CD33-IgG1: S100A9 high-affinity chimeric (CD33-IgG1) decoy receptor (protein)
chain: DPNFWLQVQESVTVQEGLCVLVPCTFFHPIPYYDKNSPVHGYWFREGAIISRDSPVATNKLDQEVQEETQGRFRLLGDPSRNNCSLSIVDARRRDNGSYFFRMERGSTKYSYKSPQLSVHVTDLTHRPKILIPGTLEPGHSKNLTCSVSWACEQGTPPIFSWLSAAPTSLGPRTTHSSVLIITPRPQDHGTNLTCQVKFAGAGVTTERTIQLNVTYVPQNPTTGIFPGDGSGKQETRAGVVH
modifications: left off: a dimerising Fc or GST
MDS BM-MNC [1]
  CASP3 expression: markedly reduced
  expression of CASP1, IL-1β, IL-18, and NLRP3: reduced
MDS BM-MNC [2]; CD33+ immature myeloids, 0.5 μg CD33-IgG1 or 0.1 μM IRAK4 inhibitor, 24 hours
  reduction of fraction of pyroptotic cells, maximum lineage-specific change, CD33+ cells: 68%
MDS BM-MNC [2]; CD34+CD38+ progenitor cells, 0.5 μg CD33-IgG1 or 0.1 μM IRAK4 inhibitor, 24 hours
  reduction of fraction of pyroptotic cells, maximum lineage-specific change, progenitor cells: 23%
MDS BM-MNC [2]; CD34+CD38− stem cells, 0.5 μg CD33-IgG1 or 0.1 μM IRAK4 inhibitor, 24 hours
  reduction of fraction of pyroptotic cells, maximum lineage-specific change, stem cells: 44%
MDS BM-MNC [2]; CD71+ erythroids, 0.5 μg CD33-IgG1 or 0.1 μM IRAK4 inhibitor, 24 hours
  reduction of fraction of pyroptotic cells, maximum lineage-specific change, CD71+ cells: 64%
MDS BM-MNC [2]; MDS BM-MNC (n=4), autologous BM plasma, 0.5 μg CD33-IgG1 or 0.1 μM IRAK4 inhibitor
  fraction of pyroptotic cells across all lineages studied: marked reduction
MDS BM-MNC [2]; short-term treatment with the chimeric receptor
  MDSC fraction: significantly reduced
